From patent publication US20260061042A1, “POLYNUCLEOTIDE COMPOSITIONS AND USES THEREOF” (Pfizer Inc., priority 2024, published 2026) come the findings set out here.

The test system of data set [1] is E. coli strain CFT073 agglutination of human red blood cells. The data set is described as follows: PapG hemagglutination (HA) assay. In kind it is cell-based. The conditions noted are these: pre-incubation with E. coli CFT073 WT strain, human RBC. The method, then:
16. PapG Hemagglutination (HA) Assay
(§1) A PapG HA assay was developed based on procedures described previously. WT E. coli strain CFT073 bacteria were streaked out from a frozen glycerol stock for single colonies on a tryptic soy blood agar plate. To grow bacteria for use in the HA assay, bacteria were cultured overnight in Luria Bertani liquid media at 37° C. and shaking at 230 rpm. The next morning, bacteria were washed once with 1×PBS and normalized to an OD540 of 1.0 in PBS. 30 μL of bacteria were then placed in a V-bottom 96-well plate (Corning, 3894) and serially diluted across the plate. […] After this incubation, 60 μL of a 1.75% red blood cell (Human Red Blood Cells, Washed, Rockland Immunochemicals R407-0050) solution (diluted from 10% stock using 1×PBS) was added to all the wells in the plate. The plate was incubated for 2 hours at 4° C. and then imaged using a light box and camera or ImageQuant System. To collect quantitative data, assay plates were analyzed using a Clariostar instrument. Absorbance was measured at a wavelength of 540 nm, which was the maximum absorbance observed using an RBC only control well, and a read diameter of 4 mm within each well. Absorbance was normalized using blank controls (1×PBS only).
7. Development of a Hemagglutination (HA) Assay as a Functional Assay to Evaluate Sera from PapG Immunized Animals. […]

Data set [2] has as its system E. coli strain CFT073 (PapG-dependent agglutination of human red blood cells). Nature of the data set: PapG hemagglutination (HA) assay. It is filed as cell-based, Escherichia coli CFT073; human red blood cells. Particulars: pre-incubation of E. coli CFT073 WT strain with GbO3, then human RBCs. How it is done: as §1
PapG mediates the ability of E. coli to agglutinate human red blood cells (RBC).

The target of data set [3] is T1, E. coli CFT073 PapG-II lectin domain PapGLD variant N96S G104A, SEQ ID NO: 16 (Escherichia coli, UniProt A0A0H2VAQ6, G124A/N116S).
T1 sequence (A0A0H2VAQ6 with tags, fused parts or gaps N116S/G124A): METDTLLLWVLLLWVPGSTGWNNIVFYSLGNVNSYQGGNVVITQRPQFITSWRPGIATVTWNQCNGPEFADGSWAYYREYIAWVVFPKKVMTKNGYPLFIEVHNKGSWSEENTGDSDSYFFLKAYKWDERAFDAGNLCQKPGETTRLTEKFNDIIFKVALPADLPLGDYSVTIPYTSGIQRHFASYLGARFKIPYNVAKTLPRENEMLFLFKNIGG
The data set is described as follows: SYPRO orange thermal shift with GbO3. It is filed as binding. Particulars: shift in melting temperature in the presence of GbO3 vs apo; 3 replicates; PBS pH 7.4, 4% DMSO. The method, then: (§2) PapG proteins were added to assay buffer (consisting of 4% DMSO, 1:1000 dilution of SYPRO orange (Invitrogen S6650) in PBS pH 7.4) at a final concentration of […]. Melt curves were analyzed in a QuantStudio 6 Real-time PCR system (ThermoFisher) using a dissociation protocol from 25° C. to 99° C., at 0.05° C./second. ROX was specified as the reporter.
(§3) The thermal stability of PapG WT and mutant proteins were determined using a SYPRO orange thermal shift-based differential scanning fluorimetry assay, wherein Tm designates the temperature at which 50% of the protein is unfolded. Non-covalent ligands often stabilize protein targets upon specific binding, resulting in an increase in protein melting temperature. Tm were therefore determined in the presence and absence of GbO3 for PapG, and the difference in Tm (ΔTm) of protein in the presence of ligand relative to the apo form was calculated.

Data set [4] can be described thus: PapG Luminex ligand binding assay with globoside GbO4. Particulars: result in words. The method, then: 9. PapG Ligand Binding Assay with Globoside GbO4
To determine the ability of PapGLD mutants to bind the porcine derived globotetraosyl ceramide ligand GalNAc-Gal-Gal-Glc-ceramide (GbO4), a Luminex ligand binding assay was developed. Surfactant Protein-A (SP-A) was coupled to the surface of MagPlex beads by EDC/NHS, to capture the lipid tail of the globotetraosyl ceramide. The Globotetraosyl ceramide/SP-A beads were incubated with an eight-point threefold titration of PapG in a 96 well flat bottom white plate with final volume of 100 microliters of 50 mM HEPES PH 7.4, 10 mM NaCl, 0.0005% Tween 20 shaking at 300 rpm, 4° C. overnight. After 20-24 hours the ligand binding plates were read on a FlexMap 3D plate reader for measurement of well-bead region specific MFI. Ligand binding equilibrium dissociation constants (Kd) were calculated assuming one site specific binding and interpolated using non-linear curve fitting (GraphPad Prism) as the ligand concentration needed to achieve half-maximal binding. The Luminex derived apparent Kd values are based on approximately fifty bead counts per assay sample.
(§4) Binding of PapG proteins to GbO2 or GbO4 ligands was evaluated using a Luminex platform wherein ligands were coupled to MagPlex beads via surfactant protein A (for […]) or directly using […] conjugation (for […]). This assay was used to rank order binding affinities of the mutants, reported as Kd values interpolated from protein antigen titration curves (Table 7).

The nature of data set [5]: Thermal shift (SYPRO orange) melting temperature, apo form. In kind it is physicochemical. Particulars: apo state, PBS pH 7.4. How it is done:
as §2, §3

The nature of data set [6]: Thermal shift in the presence of GbO3. In kind it is binding. The conditions noted are these: in the presence of GbO3 relative to the apo form. The method, then:
as §2
The thermal stability of PapG WT and mutant proteins were determined using a SYPRO orange thermal shift-based differential scanning fluorimetry assay, wherein Tm designates the temperature at which 50% of the protein is unfolded. Non-covalent ligands often stabilize protein targets upon specific binding, resulting in an increase in protein melting temperature.

Data set [7] is described as follows: PapG Luminex ligand binding assay with globoside compound GbO2Mpo. The conditions noted are these: result in words. The method, then: 10. PapG Ligand Binding Assay with Globoside Compound GbO2Mpo
To determine Luminex ligand binding affinities of PapG mutants for the synthetic globoside ligand Gal-Glc-phenoxy-octyl-amine (GbO2Mpo), a Luminex ligand binding assay was developed based on the direct coupling of the amine reactive globoside ligand to the EDC/NHS activated carboxylic surface of MagPlex beads. Synthesis of GbO2Mpo ligand with an octyl amine linker (for coupling to beads) was performed via methods described previously. The GbO2Mpo beads were incubated with an 8-point, threefold titration of PapG in a 96-well flat bottom white plate with final volume of 100 μl of 50 mM HEPES pH 7.4, 10 mM NaCl, 0.0005% Tween 20 shaking at 300 rpm, 4° C. overnight. After 20-24 hours the ligand binding plates were read on a FlexMap 3D plate reader for measurement of well-bead region specific MFI.
as §4

Values joined by “and” are separate entries in the source; they are usually repeats but may differ in a detail not shown here. Equal entries are not always repeated. “Also recorded” adds a separate entry of the source. Bounds are passed on as bounds.

Take “Globotriaosylceramide [GbO3] [listing 1 of 2 here]”: in data set [1], the inhibition of hemagglutination entry is recorded as “efficiently blocks agglutination of RBCs; also recorded: concentration-dependent inhibition of hemagglutination”.
“Globotriaosylceramide [GbO3] [listing 2 of 2 here]”: in data set [2], the “inhibition of hemagglutination (in words)” value was “efficiently blocks agglutination of RBCs; also recorded: concentration-dependent inhibition of hemagglutination”. Further, in data set [3], the “ΔTm (Average)” value was < 0.5 °C and 0.22 °C.

B1: PapG^LD N96S R170A: PapG lectin domain N96S with R170A ligand binding site mutation; SEQ ID NO: 23 (protein)
chain: METDTLLLWVLLLWVPGSTGWNNIVFYSLGNVNSYQGGNVVITQRPQFITSWRPGIATVTWNQCNGPEFADGSWAYYREYIAWVVFPKKVMTKNGYPLFIEVHNKGSWSEENTGDSDSYFFLKGYKWDERAFDAGNLCQKPGETTRLTEKFNDIIFKVALPADLPLGDYSVTIPYTSGIQRHFASYLGAAFKIPYNVAKTLPRENEMLFLFKNIGG
On to B1, for which the “binding to GbO4 ligand” value in data set [4] was “prevent binding to GbO4; also recorded: lower the binding affinity; also recorded: eliminate ligand binding”. Also, the “Tm (Ave.)” value in data set [5] stood at 55.83 °C. Moreover, the “ΔTm (Average)” value in data set [6] was 0.33 °C.

B2: PapG^LD N96S W107A: PapG lectin domain N96S with W107A ligand binding site mutation; SEQ ID NO: 22 (protein)
chain: METDTLLLWVLLLWVPGSTGWNNIVFYSLGNVNSYQGGNVVITQRPQFITSWRPGIATVTWNQCNGPEFADGSWAYYREYIAWVVFPKKVMTKNGYPLFIEVHNKGSWSEENTGDSDSYFFLKGYKADERAFDAGNLCQKPGETTRLTEKFNDIIFKVALPADLPLGDYSVTIPYTSGIQRHFASYLGARFKIPYNVAKTLPRENEMLFLFKNIGG
B2: in data set [4], the “binding to GbO4 ligand” value is listed as “prevent binding to GbO4; also recorded: lower the binding affinity; also recorded: eliminate ligand binding”. Moreover, the “Tm (Ave.)” value in data set [5] worked out at 62.64 °C. Further, the “ΔTm (Average)” value in data set [6] was determined as 0.22 °C.

B3: PapG^LD N96S K172A: PapG lectin domain N96S with K172A ligand binding site mutation; SEQ ID NO: 24 (protein)
chain: METDTLLLWVLLLWVPGSTGWNNIVFYSLGNVNSYQGGNVVITQRPQFITSWRPGIATVTWNQCNGPEFADGSWAYYREYIAWVVFPKKVMTKNGYPLFIEVHNKGSWSEENTGDSDSYFFLKGYKWDERAFDAGNLCQKPGETTRLTEKFNDIIFKVALPADLPLGDYSVTIPYTSGIQRHFASYLGARFAIPYNVAKTLPRENEMLFLFKNIGG
Turning to B3, the “binding to GbO2 ligand” value in data set [7] is listed as “reduced binding”. For the same molecule, the “binding to GbO4 ligand” value in data set [4] is reported as “prevent binding to GbO4; also recorded: reduced binding; also recorded: lower the binding affinity; also recorded: eliminate ligand binding”. The “Tm (Ave.)” value in data set [5] worked out at 56.38 °C. Also, the “ΔTm (Average)” value in data set [6] turned out to be 0.42 °C.
